The assay has as its target T1, Human CRP (Novagen) (human, UniProt P02741 19-224).
T1 construct: also called C-reactive protein
T1 sequence (looked up): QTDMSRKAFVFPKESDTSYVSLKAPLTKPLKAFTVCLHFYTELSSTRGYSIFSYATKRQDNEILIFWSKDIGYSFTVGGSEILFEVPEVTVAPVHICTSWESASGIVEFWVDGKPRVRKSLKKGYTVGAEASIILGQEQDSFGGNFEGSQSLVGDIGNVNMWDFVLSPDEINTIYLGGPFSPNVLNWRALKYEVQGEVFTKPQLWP
As to the kind of experiment: Bead Blot of library beads loaded from CRP-spiked whole blood, detected with an anti-CRP antibody, confirmed by re-incubation.

As to GNQKWG (also called CRP ligand), the binding result is “binds”.

Values taken from US20070015230A1 (AMERICAN NATIONAL RED CROSS, published 2007).
